Test system: Escherichia coli TOP10
Assay: shrunken log2 fold change of peptide-encoding DNA abundance (4.5 h post-induction vs induction); higher = less antimicrobial activity (less host growth inhibition)
Conditions: time post-induction: 4.5 h; library: site-saturation at positions 5, 18, 19, 20
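Note: peptides expressed intracellularly from a pBAD plasmid library in pooled LB shake-flask culture, induced with 0.3% L-arabinose, DNA abundance read by NGS, three biological replicates, DESeq2 with apeglm shrinkage.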

Sequence	shrunken log2 fold change
RRIRFRPPRLPRPRPRPETAPRP	0.577
RRIRGRPPRLPRPRPRPCRKPRP	-0.079
RRIRCRPPRLPRPRPRPDKAPRP	-0.0544
RRIRHRPPRLPRPRPRPHRIPRP	-0.0803
RRIRNRPPRLPRPRPRPLGSPRP	-0.0602
RRIRNRPPRLPRPRPRPQCGPRP	-0.241
RRIRQRPPRLPRPRPRPSCRPRP	-0.28
RRIRPRPPRLPRPRPRPYKYPRP	-1.13
RRIRKRPPRLPRPRPRPLENPRP	0.228
RRIRPRPPRLPRPRPRPEYSPRP	-0.117
RRIRARPPRLPRPRPRPLHWPRP	0.387
RRIRKRPPRLPRPRPRPNTFPRP	-0.0899
RRIRGRPPRLPRPRPRPTIDPRP	0.214
RRIRSRPPRLPRPRPRPKRTPRP	0.312
RRIRPRPPRLPRPRPRPVMYPRP	-0.0963
RRIRLRPPRLPRPRPRPDARPRP	0.0258
RRIRGRPPRLPRPRPRPCAAPRP	1.89
RRIRFRPPRLPRPRPRPPSDPRP	0.201
RRIRARPPRLPRPRPRPMMGPRP	0.082
RRIRPRPPRLPRPRPRPDRVPRP	0.187
RRIRHRPPRLPRPRPRPNVDPRP	0.187
RRIRLRPPRLPRPRPRPYFRPRP	-0.78
RRIRMRPPRLPRPRPRPFHNPRP	-0.00804
RRIRIRPPRLPRPRPRPGEHPRP	-0.0955
RRIRQRPPRLPRPRPRPHQEPRP	-0.00692

Sequence	shrunken log2 fold change
RRIRIRPPRLPRPRPRPYVKPRP	-0.881
RRIRMRPPRLPRPRPRPCLAPRP	0.215
RRIRSRPPRLPRPRPRPVWTPRP	0.241
RRIRKRPPRLPRPRPRPIKGPRP	-0.141
RRIRGRPPRLPRPRPRPAPNPRP	0.829
RRIRPRPPRLPRPRPRPEEIPRP	-0.00277
RRIRHRPPRLPRPRPRPGHLPRP	-0.0129
RRIRRRPPRLPRPRPRPEPRPRP	1.02
RRIRLRPPRLPRPRPRPHAQPRP	0.133
RRIRKRPPRLPRPRPRPFTMPRP	-0.23
RRIRMRPPRLPRPRPRPPSPPRP	1.57
RRIRCRPPRLPRPRPRPWKMPRP	-0.0124
RRIRLRPPRLPRPRPRPLMYPRP	-0.327
RRIRLRPPRLPRPRPRPIQCPRP	-0.301
RRIRTRPPRLPRPRPRPMDQPRP	0.0595
RRIRNRPPRLPRPRPRPNNAPRP	0.0167
RRIRGRPPRLPRPRPRPNREPRP	-0.0791
RRIRNRPPRLPRPRPRPMPHPRP	-0.626
RRIRDRPPRLPRPRPRPLGYPRP	0.0343
RRIRTRPPRLPRPRPRPEYNPRP	-0.395
RRIRARPPRLPRPRPRPADEPRP	0.678
RRIRRRPPRLPRPRPRPYRAPRP	-0.47
RRIRCRPPRLPRPRPRPEVSPRP	0.282
RRIRERPPRLPRPRPRPCSAPRP	-0.0881
RRIRIRPPRLPRPRPRPCCWPRP	0.0865

Sequence	shrunken log2 fold change
RRIRGRPPRLPRPRPRPTKQPRP	0.169
RRIRDRPPRLPRPRPRPWTQPRP	-0.124
RRIRQRPPRLPRPRPRPLNCPRP	-0.0264
RRIRIRPPRLPRPRPRPYFGPRP	-0.0455
RRIRQRPPRLPRPRPRPPLKPRP	-0.0174
RRIRLRPPRLPRPRPRPYTEPRP	-0.284
RRIRTRPPRLPRPRPRPQNKPRP	-0.664
RRIRDRPPRLPRPRPRPRCVPRP	0.117
RRIRKRPPRLPRPRPRPGVRPRP	1.16
RRIRKRPPRLPRPRPRPREDPRP	0.346
RRIRSRPPRLPRPRPRPTSGPRP	0.194
RRIRDRPPRLPRPRPRPPRHPRP	0.377
RRIRWRPPRLPRPRPRPIQPPRP	0.0851
RRIRARPPRLPRPRPRPEILPRP	0.74
RRIRCRPPRLPRPRPRPAQNPRP	0.586
RRIRRRPPRLPRPRPRPPFTPRP	0.0961
RRIRMRPPRLPRPRPRPDWVPRP	0.0143
RRIRNRPPRLPRPRPRPSVSPRP	-0.44
RRIRIRPPRLPRPRPRPRARPRP	0.456
RRIRKRPPRLPRPRPRPGRGPRP	0.593
RRIRCRPPRLPRPRPRPIRCPRP	-0.00208
RRIRSRPPRLPRPRPRPWYIPRP	-0.314
RRIRQRPPRLPRPRPRPAWAPRP	0.263
RRIRWRPPRLPRPRPRPTGGPRP	0.511
RRIRCRPPRLPRPRPRPFESPRP	0.0262

— the supplement of paper PMC9112550, “Optimization of the antimicrobial peptide Bac7 by deep mutational scanning” (BMC Biology, 2022)
